From publication PMC3042717 come the findings set out here.

This assay addresses GST-VP16 (aa 452-490) (herpes simplex virus) (UniProt P06492). The experiment in a line: pull-down.
Chain of UniProt P06492 (P06492 452-490): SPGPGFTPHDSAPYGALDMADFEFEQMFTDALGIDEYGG

Substance “wild-type p300 over-expressed in A293 cells, Q09472 1-2414” displayed a fold more efficient pull-down than of p300ΔC of 5 fold.
